Positions count from the first letter of the chain named. Names and notes keep the numbering of the source.
B1: pVER-IPTG-WT(L56M/A194V): LacI variant: L56M A194V (protein, UniProt P03023 1-360, looked up, variant L56M A194V)
Lactose operon repressor: MKPVTLYDVAEYAGVSYQTVSRVVNQASHVSAKTREKVEAAMAELNYIPNRVAQQMAGKQSLLIGVATSSLALHAPSQIVAAIKSRADQLGASVVVSMVERSGVEACKAAVHNLLAQRVSGLIINYPLDDQDAIAVEAACTNVPALFLDVSDQTPINSIIFSHEDGTRLGVEHLVALGHQQIALLAGPLSSVSVRLRLAGWHKYLTRNQIQPIAEREGDWSAMSGFQQTMQMLNEGIVPTAMLVANDQMALGAMRAITESGLRVGADISVVGYDDTEDSSCYIPPLTTIKQDFRLLGQTSVDRLLQLSQGQAVKGNQLLPVSLVKRKTTLAPNTQTASPRALADSLMQLARQVSRLESGQ
B2: pVER-IPTG-WT(L56M/D130E): LacI variant: L56M D130E (protein, UniProt P03023 1-360, looked up, variant L56M D130E)
Lactose operon repressor: B1 Lactose operon repressor with D130E, V194A

System: eYFP under the control of the lactose operator (lacO)
Experiment: in vivo dose-response curves of LacI variants to IPTG measured with flow cytometry (eYFP output), fit to the Hill equation
Format: cell-based, E. coli
Conditions: IPTG dose-response, Hill fit of cytometry data
How it was run: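 E. coli MG1655Δlac carrying pVER plasmids with lacI variants and a lacO-controlled eYFP cassette were grown at 37 °C in rich M9 with kanamycin. Stationary cultures were passaged twice for 160 min each in an IPTG 2-fold dilution series plus zero; eYFP was read by flow cytometry and fit to the Hill equation.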

Molecule | n: the Hill coefficient
B1 | 1.42
B2 | 1.42

Source: paper PMC10057847, “Precision engineering of biological function with large-scale measurements and machine learning” (PLOS ONE, 2023)
